Laboratory results taken from article PMC2640967.

Target: Vps24 (full-length, two-hybrid fusion) (A. nidulans)
Test: two-hybrid

| Molecule | fold lower β-galactosidase activity than with DidB^Did2 [fold] | fold β-galactosidase activity with Vps24 over that with DidB [fold] |
| --- | --- | --- |
| Vps4 (two-hybrid fusion) (enzyme) | 30 |  |
| PalB-(1–130) prey (two-hybrid fusion) (domain or fragment) MSRTSSAPSQKSLISRALKAERDVITASSQSQALDAAIDAAEHYMKALALTSSSKDRNVLDAKCKEWLTRAEKIKGSEDWRSVAQSRRSRLRTPASTRKLTTREDIILLQGAKLNGFIFPPWKAEPSLTE |  | 10 |
